Reference: patent publication US11654198B2, “Application of combination of polyethylene glycol and local anesthetic in non-narcotic analgesia” (JENKEM TECHNOLOGY CO., LTD. (TIANJIN), priority 2016, dated 2023)

Columns and labels:
SD rats [1] = assay: Motor block four-level score, rat sciatica model (SNL) (Example 32); format: in vivo; design: key to motor function score: 1 = normal paw movement to 4 = complete loss, gait defect; details: for motor function score: bupivacaine 8, conjugate 10/11/12 32/24/48 mg/kg; for effect on motor function of SD rats: conjugate 10/11/12 at 32/24/48 mg/kg
From the text: Intervertebral disc compression (SNL): This model is a pathological form that simulates clinical disc herniation. The specific method is to remove the autogenous caudal intervertebral disc tissue (annulus fibrosus and nucleus pulposus) form the rats and place the caudal intervertebral disc tissue between the proximal nerve root of the L5 dorsal root ganglion and the lower vertebral body to directly compress the L5 nerve root, wherein damage to the L5 nerve root or dorsal root ganglion should be avoided during the operation. 3 to 15 days after the model is successful, rats develop significant hyperalgesia, so the administration time we chose is between 3 days and 15 days.
Qualified rats are randomly divided into 5 groups, 6 rats in each group, which are labeled as groups G1, G2, G3, G4 and G5, respectively. Administration by intramuscular injection around sciatic nerve is adopted, and the grouping information of the experimental animals is shown in Table 11.
Motor block (four-level score): The exercise condition of each group of rats is evaluated by the motor block four-level scoring method. The scoring criteria are: paws can be dorsiflexed, stretched, valgus and other normal exercises, scored by 1 point; paws can be dorsiflexed, bendable or after the adduction, although the paws can be stretched, the stretching ability is weakened, scored by 2 points; the paw can perform dorsiflexion, but no longer has the ability to stretch, scored by 3 points; the paw completely loses the ability of dorsiflexion, curling and stretching, and the rats produce a gait defect, scored by 4 points. The time point for determining the withdrawal time of the hot plate is before administration, and 0.5 h, 1 h, 2 h, 4 h, 6 h, 8 h, 12 h, and 24 h after administration.

SD rats [2] = assay: Motor block four-level score (Example 30); format: in vivo, rat; design: key to motor function score: 1 = normal motor function to 4 = complete loss with gait defect; details: for motor function score: direct injection around sciatic nerve, conjugate 10/11/12 at 32/24/48 mg/kg (as bupivacaine); for effect on motor function of SD rats: conjugate 10 at 32 mg/kg, conjugate 11 at 24 mg/kg; for motor scores at different time points versus vehicle group: direct injection, conjugate 10/11/12 at 32/24/48 mg/kg
Protocol: Male Sprague-Dawley rats are used in the study, about 230-250 g when accepted, and acclimated for at least 7 days prior to the experiment. Two rats are raised in each cage and fed freely with feed and water. The environmental conditions of the breeding room are 23±2° C., and the relative humidity is 40% to 70%, alternating 12 hours of light and dark. […] The qualified rats are randomly divided into 4 groups, 4 rats in each group, which are labeled as groups G1, G2, G3, and G4, respectively. Administration by direct injection in the sciatic nerve is adopted, and with the rat's back facing up, the drug is injected around the right sciatic nerve trunk between the right hip and the right thigh.
Motor block (four-level score): The exercise condition of each group of rats is evaluated by the motor block four-level scoring method. The scoring criteria are: paws can be dorsiflexed, stretched, valgus and other normal exercises, scored by 1 point; paws can be dorsiflexed, bendable or after the adduction, although the paws can be stretched after the adduction, the stretching ability is weakened, scored by 2 points; the paw can perform dorsiflexion, but no longer has the ability to stretch, scored by 3 points; the paws completely lose the ability of dorsiflexion, curling and stretching, and the rats produce a gait defect, scored by 4 points. The time point for measuring the motor block score is before administration, and 0.5 h, 1 h, 2 h, 4 h, 6 h, 8 h, 12 h, and 24 h after administration.

8-Arm-PEG-Bupivacaine, 20K [bupivacaine conjugate 10]
motor function score (SD rats [1]; 0.5 h): 1 ± 0
motor function score (SD rats [1]; 1 h): 1.75 ± 0.5
motor function score (SD rats [1]; 2 h): 1.75 ± 0.5
motor function score (SD rats [1]; 4 h): 1.75 ± 0.5
motor function score (SD rats [1]; 6 h): 1.75 ± 0.5
motor function score (SD rats [1]; 8 h): 1.75 ± 0.5
motor function score (SD rats [1]; 12 h): 1 ± 0
motor function score (SD rats [1]; 24 h): 1 ± 0
effect on motor function of SD rats (SD rats [1]): does not affect the motor function
motor function score (SD rats [2]; 0 h (before administration)): 1 ± 0
motor function score (SD rats [2]; 0.5 h): 1 ± 0
motor function score (SD rats [2]; 1 h): 1.75 ± 0.5
motor function score (SD rats [2]; 2 h): 1.75 ± 0.5
motor function score (SD rats [2]; 4 h): 1.75 ± 0.5
motor function score (SD rats [2]; 6 h): 1.75 ± 0.5
motor function score (SD rats [2]; 8 h): 1.75 ± 0.5
motor function score (SD rats [2]; 12 h): 1 ± 0
motor function score (SD rats [2]; 24 h): 1 ± 0
effect on motor function of SD rats (SD rats [2]): does not affect the motor function
motor scores at different time points versus vehicle group (SD rats [2]): not significantly different

8-Arm-PEG-Bupivacaine, 20K [bupivacaine conjugate 11]
motor function score (SD rats [1]; 0.5 h): 1 ± 0
motor function score (SD rats [1]; 1 h): 1 ± 0
motor function score (SD rats [1]; 2 h): 1 ± 0
motor function score (SD rats [1]; 4 h): 1 ± 0
motor function score (SD rats [1]; 6 h): 1 ± 0
motor function score (SD rats [1]; 8 h): 1 ± 0
motor function score (SD rats [1]; 12 h): 1 ± 0
motor function score (SD rats [1]; 24 h): 1 ± 0
effect on motor function of SD rats (SD rats [1]): does not affect the motor function
motor function score (SD rats [2]; 0 h (before administration)): 1 ± 0
motor function score (SD rats [2]; 0.5 h): 1 ± 0
motor function score (SD rats [2]; 1 h): 1 ± 0
motor function score (SD rats [2]; 2 h): 1 ± 0
motor function score (SD rats [2]; 4 h): 1 ± 0
motor function score (SD rats [2]; 6 h): 1 ± 0
motor function score (SD rats [2]; 8 h): 1 ± 0
motor function score (SD rats [2]; 12 h): 1 ± 0
motor function score (SD rats [2]; 24 h): 1 ± 0
effect on motor function of SD rats (SD rats [2]): does not affect the motor function
motor scores at different time points versus vehicle group (SD rats [2]): not significantly different

8-Arm-PEG-Bupivacaine, 20K [bupivacaine conjugate 12]
motor function score (SD rats [1]; 0.5 h): 1 ± 0
motor function score (SD rats [1]; 1 h): 1 ± 0
motor function score (SD rats [1]; 2 h): 1 ± 0
motor function score (SD rats [1]; 4 h): 1 ± 0
motor function score (SD rats [1]; 6 h): 1 ± 0
motor function score (SD rats [1]; 8 h): 1 ± 0
motor function score (SD rats [1]; 12 h): 1 ± 0
motor function score (SD rats [1]; 24 h): 1 ± 0
effect on motor function of SD rats (SD rats [1]): does not affect the motor function
motor function score (SD rats [2]; 0 h (before administration)): 1 ± 0
motor function score (SD rats [2]; 0.5 h): 1 ± 0
motor function score (SD rats [2]; 1 h): 1 ± 0
motor function score (SD rats [2]; 2 h): 1 ± 0
motor function score (SD rats [2]; 4 h): 1 ± 0
motor function score (SD rats [2]; 6 h): 1 ± 0
motor function score (SD rats [2]; 8 h): 1 ± 0
motor function score (SD rats [2]; 12 h): 1 ± 0
motor function score (SD rats [2]; 24 h): 1 ± 0
motor scores at different time points versus vehicle group (SD rats [2]): not significantly different
